Assay results: patent US20130058937A1 (Hoffmann-La Roche, published 2013)

B1: 2+1 IgG Crossfab (N-terminal); VL/VH exchange (MCSP (LC007)/huCD3) (bispecific antibody)
chain 1: DIQMTQSPSSLSASVGDRVTITCRASQDIRNYLNWYQQKPGKAPKLLIYYTSRLESGVPSRFSGSGSGTDYTLTISSLQPEDFATYYCQQGNTLPWTFGQGTKVEIKSSASTKGPSVFPLAPSSKSTSGGTAALGCLVKDYFPEPVTVSWNSGALTSGVHTFPAVLQSSGLYSLSSVVTVPSSSLGTQTYICNVNHKPSNTKVDKKVEPKSCGGGGSGGGGSEVQLQESGPGLVKPSQSLSLTCSVTGYSITSGYYWNWIRQFPGNKLEWMGYITYDGSNNYNPSLKNRISITRDTSKNQFFLKLNSVTTEDTATYYCADFDYWGQGTTLTVSSASTKGPSVFPLAPSSKSTSGGTAALGCLVKDYFPEPVTVSWNSGALTSGVHTFPAVLQSSGLYSLSSVVTVPSSSLGTQTYICNVNHKPSNTKVDKKVEPKSCDKTHTCPPCPAPEAAGGPSVFLFPPKPKDTLMISRTPEVTCVVVDVSHEDPEVKFNWYVDGVEVHNAKTKPREEQYNSTYRVVSVLTVLHQDWLNGKEYKCKVSNKALGAPIEKTISKAKGQPREPQVCTLPPSRDELTKNQVSLSCAVKGFYPSDIAVEWESNGQPENNYKTTPPVLDSDGSFFLVSKLTVDKSRWQQGNVFSCSVMHEALHNHYTQKSLSLSPGK
chain 2: EVQLVESGGGLVQPGGSLRLSCAASGYSFTGYTMNWVRQAPGKGLEWVALINPYKGVSTYNQKFKDRFTISVDKSKNTAYLQMNSLRAEDTAVYYCARSGYYGDSDWYFDVWGQGTLVTVSSASVAAPSVFIFPPSDEQLKSGTASVVCLLNNFYPREAKVQWKVDNALQSGNSQESVTEQDSKDSTYSLSSTLTLSKADYEKHKVYACEVTHQGLSSPVTKSFNRGEC
chain 3: DIVLTQSPSSLSASLGDRVTISCSASQGIRNYLNWYQQRPDGTVKLLIYYTSSLHSGVPSRFSGSGSGTDYSLTISNLEPEDIATYYCQQYSKLPWTFGGGTKLEIKRTVAAPSVFIFPPSDEQLKSGTASVVCLLNNFYPREAKVQWKVDNALQSGNSQESVTEQDSKDSTYSLSSTLTLSKADYEKHKVYACEVTHQGLSSPVTKSFNRGEC
chain 4: not shown
notes: Two MCSP Fabs, one CD3 Crossfab fused to the N-terminus of one Fab; also called anti-MCSP/anti-huCD3; CD3-MCSP 2+1 IgG Crossfab (N-terminal)
B2: CD3-MCSP 1+1 IgG Crossfab (N-terminal) (SEQ ID NOs 1, 3, 4, 86) (bispecific antibody)
chain 1: DIQMTQSPSSLSASVGDRVTITCRASQDIRNYLNWYQQKPGKAPKLLIYYTSRLESGVPSRFSGSGSGTDYTLTISSLQPEDFATYYCQQGNTLPWTFGQGTKVEIKSSASTKGPSVFPLAPSSKSTSGGTAALGCLVKDYFPEPVTVSWNSGALTSGVHTFPAVLQSSGLYSLSSVVTVPSSSLGTQTYICNVNHKPSNTKVDKKVEPKSCGGGGSGGGGSEVQLQESGPGLVKPSQSLSLTCSVTGYSITSGYYWNWIRQFPGNKLEWMGYITYDGSNNYNPSLKNRISITRDTSKNQFFLKLNSVTTEDTATYYCADFDYWGQGTTLTVSSASTKGPSVFPLAPSSKSTSGGTAALGCLVKDYFPEPVTVSWNSGALTSGVHTFPAVLQSSGLYSLSSVVTVPSSSLGTQTYICNVNHKPSNTKVDKKVEPKSCDKTHTCPPCPAPEAAGGPSVFLFPPKPKDTLMISRTPEVTCVVVDVSHEDPEVKFNWYVDGVEVHNAKTKPREEQYNSTYRVVSVLTVLHQDWLNGKEYKCKVSNKALGAPIEKTISKAKGQPREPQVCTLPPSRDELTKNQVSLSCAVKGFYPSDIAVEWESNGQPENNYKTTPPVLDSDGSFFLVSKLTVDKSRWQQGNVFSCSVMHEALHNHYTQKSLSLSPGK
chain 2: EVQLVESGGGLVQPGGSLRLSCAASGYSFTGYTMNWVRQAPGKGLEWVALINPYKGVSTYNQKFKDRFTISVDKSKNTAYLQMNSLRAEDTAVYYCARSGYYGDSDWYFDVWGQGTLVTVSSASVAAPSVFIFPPSDEQLKSGTASVVCLLNNFYPREAKVQWKVDNALQSGNSQESVTEQDSKDSTYSLSSTLTLSKADYEKHKVYACEVTHQGLSSPVTKSFNRGEC
chain 3: DIVLTQSPSSLSASLGDRVTISCSASQGIRNYLNWYQQRPDGTVKLLIYYTSSLHSGVPSRFSGSGSGTDYSLTISNLEPEDIATYYCQQYSKLPWTFGGGTKLEIKRTVAAPSVFIFPPSDEQLKSGTASVVCLLNNFYPREAKVQWKVDNALQSGNSQESVTEQDSKDSTYSLSSTLTLSKADYEKHKVYACEVTHQGLSSPVTKSFNRGEC
chain 4: not shown
B3: 2+1 IgG Crossfab (N-terminal), inverted; CL/CH1 exchange (MCSP (LC007)/huCD3) (bispecific antibody)
chain 1: DIVLTQSPSSLSASLGDRVTISCSASQGIRNYLNWYQQRPDGTVKLLIYYTSSLHSGVPSRFSGSGSGTDYSLTISNLEPEDIATYYCQQYSKLPWTFGGGTKLEIKRTVAAPSVFIFPPSDEQLKSGTASVVCLLNNFYPREAKVQWKVDNALQSGNSQESVTEQDSKDSTYSLSSTLTLSKADYEKHKVYACEVTHQGLSSPVTKSFNRGEC
chain 2: DIQMTQSPSSLSASVGDRVTITCRASQDIRNYLNWYQQKPGKAPKLLIYYTSRLESGVPSRFSGSGSGTDYTLTISSLQPEDFATYYCQQGNTLPWTFGQGTKVEIKSSASTKGPSVFPLAPSSKSTSGGTAALGCLVKDYFPEPVTVSWNSGALTSGVHTFPAVLQSSGLYSLSSVVTVPSSSLGTQTYICNVNHKPSNTKVDKKVEPKSC
chain 3: EVQLQESGPGLVKPSQSLSLTCSVTGYSITSGYYWNWIRQFPGNKLEWMGYITYDGSNNYNPSLKNRISITRDTSKNQFFLKLNSVTTEDTATYYCADFDYWGQGTTLTVSSASTKGPSVFPLAPSSKSTSGGTAALGCLVKDYFPEPVTVSWNSGALTSGVHTFPAVLQSSGLYSLSSVVTVPSSSLGTQTYICNVNHKPSNTKVDKKVEPKSCDKTHTCPPCPAPEAAGGPSVFLFPPKPKDTLMISRTPEVTCVVVDVSHEDPEVKFNWYVDGVEVHNAKTKPREEQYNSTYRVVSVLTVLHQDWLNGKEYKCKVSNKALGAPIEKTISKAKGQPREPQVCTLPPSRDELTKNQVSLSCAVKGFYPSDIAVEWESNGQPENNYKTTPPVLDSDGSFFLVSKLTVDKSRWQQGNVFSCSVMHEALHNHYTQKSLSLSPGK
chain 4: not shown
notes: also called the inverted construct; CD3/MCSP 2+1 IgG Crossfab (N-terminal), inverted
B4: CD3-MCSP 1+1 CrossMab; CL/CH1 exchange (MCSP (LC007)/huCD3) (bispecific antibody)
chain 1: DIVLTQSPSSLSASLGDRVTISCSASQGIRNYLNWYQQRPDGTVKLLIYYTSSLHSGVPSRFSGSGSGTDYSLTISNLEPEDIATYYCQQYSKLPWTFGGGTKLEIKRTVAAPSVFIFPPSDEQLKSGTASVVCLLNNFYPREAKVQWKVDNALQSGNSQESVTEQDSKDSTYSLSSTLTLSKADYEKHKVYACEVTHQGLSSPVTKSFNRGEC
chain 2: DIQMTQSPSSLSASVGDRVTITCRASQDIRNYLNWYQQKPGKAPKLLIYYTSRLESGVPSRFSGSGSGTDYTLTISSLQPEDFATYYCQQGNTLPWTFGQGTKVEIKSSASTKGPSVFPLAPSSKSTSGGTAALGCLVKDYFPEPVTVSWNSGALTSGVHTFPAVLQSSGLYSLSSVVTVPSSSLGTQTYICNVNHKPSNTKVDKKVEPKSC
chain 3: not shown
chain 4: EVQLQESGPGLVKPSQSLSLTCSVTGYSITSGYYWNWIRQFPGNKLEWMGYITYDGSNNYNPSLKNRISITRDTSKNQFFLKLNSVTTEDTATYYCADFDYWGQGTTLTVSSASTKGPSVFPLAPSSKSTSGGTAALGCLVKDYFPEPVTVSWNSGALTSGVHTFPAVLQSSGLYSLSSVVTVPSSSLGTQTYICNVNHKPSNTKVDKKVEPKSCDKTHTCPPCPAPEAAGGPSVFLFPPKPKDTLMISRTPEVTCVVVDVSHEDPEVKFNWYVDGVEVHNAKTKPREEQYNSTYRVVSVLTVLHQDWLNGKEYKCKVSNKALGAPIEKTISKAKGQPREPQVCTLPPSRDELTKNQVSLSCAVKGFYPSDIAVEWESNGQPENNYKTTPPVLDSDGSFFLVSKLTVDKSRWQQGNVFSCSVMHEALHNHYTQKSLSLSPGK

Tests used:
[1] = target: T1, human MCSP (Melanoma-associated Chondroitin Sulfate Proteoglycan), expressed on tumor cells (human, UniProt Q6UVK1 30-2322); assay: FACS on WM266-4 cells, FITC/PE anti-human Fc secondary
T1 construct: whole, on cells; also called huMCSP; Chondroitin Sulfate Proteoglycan 4
T1 sequence (Q6UVK1 30-2322): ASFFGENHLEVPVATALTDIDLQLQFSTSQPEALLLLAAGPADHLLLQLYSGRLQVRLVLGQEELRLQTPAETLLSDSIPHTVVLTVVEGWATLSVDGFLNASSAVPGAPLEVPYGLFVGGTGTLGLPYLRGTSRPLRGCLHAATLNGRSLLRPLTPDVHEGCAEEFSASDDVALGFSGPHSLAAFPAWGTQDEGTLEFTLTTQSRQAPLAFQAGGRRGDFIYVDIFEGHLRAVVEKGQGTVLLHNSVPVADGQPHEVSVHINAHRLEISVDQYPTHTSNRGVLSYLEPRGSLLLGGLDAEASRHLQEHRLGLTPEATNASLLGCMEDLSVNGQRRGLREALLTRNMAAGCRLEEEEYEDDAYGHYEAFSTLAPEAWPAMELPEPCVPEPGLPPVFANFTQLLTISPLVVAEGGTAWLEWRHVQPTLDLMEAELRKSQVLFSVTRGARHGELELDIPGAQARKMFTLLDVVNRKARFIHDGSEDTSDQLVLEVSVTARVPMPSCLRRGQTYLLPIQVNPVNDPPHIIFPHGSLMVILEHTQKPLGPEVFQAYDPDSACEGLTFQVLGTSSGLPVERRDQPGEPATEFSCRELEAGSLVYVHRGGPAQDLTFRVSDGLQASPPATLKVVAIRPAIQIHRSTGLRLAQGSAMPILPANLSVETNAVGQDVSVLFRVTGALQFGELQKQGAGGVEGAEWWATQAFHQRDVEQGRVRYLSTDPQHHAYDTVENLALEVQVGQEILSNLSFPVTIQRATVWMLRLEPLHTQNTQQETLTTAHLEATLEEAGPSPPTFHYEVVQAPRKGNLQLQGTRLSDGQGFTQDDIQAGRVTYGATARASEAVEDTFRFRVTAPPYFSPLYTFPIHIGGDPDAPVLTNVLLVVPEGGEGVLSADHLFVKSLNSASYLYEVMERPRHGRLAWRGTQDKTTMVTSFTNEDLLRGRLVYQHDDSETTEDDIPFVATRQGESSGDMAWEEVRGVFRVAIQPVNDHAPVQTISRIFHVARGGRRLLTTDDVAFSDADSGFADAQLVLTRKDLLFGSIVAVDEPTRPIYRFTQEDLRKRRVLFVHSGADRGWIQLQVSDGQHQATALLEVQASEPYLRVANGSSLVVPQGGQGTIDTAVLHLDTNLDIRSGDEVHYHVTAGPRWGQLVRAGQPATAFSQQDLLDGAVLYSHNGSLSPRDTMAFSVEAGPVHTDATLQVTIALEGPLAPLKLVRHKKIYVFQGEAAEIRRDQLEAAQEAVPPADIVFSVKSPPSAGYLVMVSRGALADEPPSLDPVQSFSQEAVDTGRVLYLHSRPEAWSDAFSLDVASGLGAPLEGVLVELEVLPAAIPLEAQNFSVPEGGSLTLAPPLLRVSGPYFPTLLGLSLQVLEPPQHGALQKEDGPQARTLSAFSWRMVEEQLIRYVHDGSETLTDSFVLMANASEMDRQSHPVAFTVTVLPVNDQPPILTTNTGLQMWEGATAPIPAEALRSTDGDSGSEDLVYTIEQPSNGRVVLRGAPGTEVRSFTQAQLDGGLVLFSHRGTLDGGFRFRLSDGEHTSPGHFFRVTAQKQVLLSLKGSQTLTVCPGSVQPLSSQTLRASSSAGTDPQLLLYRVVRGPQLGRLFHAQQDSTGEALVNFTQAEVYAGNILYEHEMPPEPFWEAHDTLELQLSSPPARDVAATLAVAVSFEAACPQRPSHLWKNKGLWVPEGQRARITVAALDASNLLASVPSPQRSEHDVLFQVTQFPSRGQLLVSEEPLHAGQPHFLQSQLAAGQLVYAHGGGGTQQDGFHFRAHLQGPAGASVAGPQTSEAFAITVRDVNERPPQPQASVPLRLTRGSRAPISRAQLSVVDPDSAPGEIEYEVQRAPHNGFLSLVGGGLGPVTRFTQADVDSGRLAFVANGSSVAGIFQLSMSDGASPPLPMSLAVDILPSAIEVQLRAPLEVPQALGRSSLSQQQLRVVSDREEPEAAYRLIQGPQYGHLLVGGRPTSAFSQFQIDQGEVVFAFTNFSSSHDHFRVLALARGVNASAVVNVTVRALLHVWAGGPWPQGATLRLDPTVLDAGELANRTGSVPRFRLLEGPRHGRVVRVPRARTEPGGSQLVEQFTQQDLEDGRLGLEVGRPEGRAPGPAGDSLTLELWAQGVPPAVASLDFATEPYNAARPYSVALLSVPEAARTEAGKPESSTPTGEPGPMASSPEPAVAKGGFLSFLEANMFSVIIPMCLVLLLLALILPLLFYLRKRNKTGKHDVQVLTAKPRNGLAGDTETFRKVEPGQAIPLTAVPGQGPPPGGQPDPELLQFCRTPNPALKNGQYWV
Experimental: (§1) Binding of the different bispecific constructs to CD3 on Jurkat (ATCC #TIB-152) cells, and the respective tumor antigen MCSP on WM266-4 cells or CEA on LS174-T cells, was determined by FACS. Briefly, cells were harvested, counted and checked for viability. 0.15-0.2 million cells per well were plated in a round-bottom 96-well plate and incubated with the indicated concentration of the bispecific constructs and controls for 30 min at 4° C. For a better comparison, the constructs were normalized to same molarity. Cells were washed with PBS containing 0.1% BSA once. After incubation with a FITC- or PE-conjugated secondary antibody for 30 min at 4° C., bound constructs were detected using a FACSCantoII (Software FACS Diva). A FITC- or PE-conjugated AffiniPure F(ab′)2 Fragment goat anti-human IgG Fcγ Fragment Specific (Jackson Immuno Research Lab #109-096-098/working solution 1:20, or #109-116-170/working solution 1:80, respectively) was used. Unless otherwise indicated, cells were fixed with 100 μl/well fixation buffer (BD #554655) for 15 min at 4° C. in the dark, centrifuged for 6 min at 400×g and kept in 200 μl/well PBS containing 0.1% BSA until analysis. EC50 values were calculated using the GraphPad Prism 5 software.
While binding of both construct to MCSP on cells was comparably good, the binding of the “inverted” construct to CD3 was reduced compared to the other construct.

[2] = target: T2, human CD3, expressed by Jurkat cells (human, UniProt P07766 23-207); assay: FACS on Jurkat cells, FITC/PE anti-human Fc secondary
T2 construct: whole, on cells; The assay presents the whole CD3 complex on Jurkat T cells; also called human CD3 on cells; huCD3
T2 sequence (P07766 23-207): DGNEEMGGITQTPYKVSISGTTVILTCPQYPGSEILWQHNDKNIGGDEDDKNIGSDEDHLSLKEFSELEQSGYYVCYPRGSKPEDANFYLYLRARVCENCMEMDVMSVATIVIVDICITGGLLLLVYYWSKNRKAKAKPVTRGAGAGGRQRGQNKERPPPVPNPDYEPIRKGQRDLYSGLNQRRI
Experimental: as §1, with “Unless otherwise indicated, cells were fixed with 100 μl/well fixation buffer (BD #554655) for 15 min at 4° C. in the dark, centrifuged for 6 min at 400×g and kept in 200 μl/well PBS containing 0.1% BSA until analysis.” left out
As a control, the equivalent maximum concentration of the corresponding IgGs and the background staining due to the labeled 2ndary antibody (goat anti-human FITC-conjugated AffiniPure F(ab′)2 Fragment, Fcγ Fragment-specific, Jackson Immuno Research Lab #109-096-098) were assessed as well. […]

[3] = target: T1, human MCSP (Melanoma-associated …); assay: cell-based or functional assay

Binder | EC50 [1] | EC50 [2] | EC50 of killing (LDH release) of MV-3 cells, human PBMCs, E:T 10:1, 21 h [3] | EC50 of killing (LDH release) of WM266-4 cells, human PBMCs, E:T 10:1, 21 h [3]
B1 | 0.95 nM | 1.66 nM | 0.0092 nM | 0.0331 nM
B2 |  |  | 0.0409 nM | 0.0284 nM
B3 | 0.57 nM | 6.1 nM |  | 
B4 |  |  | 0.0884 nM | 0.0539 nM
